Here are results for 6 molecules from PMC6554949, “Arabidopsis thaliana organelles mimic the T7 phage DNA replisome with specific interactions between Twinkle protein and DNA polymerases Pol1A and Pol1B” (BMC Plant Biology, 2019).

Assay [1] deals with T7 primase-helicase (Escherichia phage T7) (UniProt P03692). The note with it: cited from earlier work.
The next assay has as its target DnaE (Bacillus subtilis) (UniProt O34623). The following applies: cited from earlier work.
Assay [2] deals with T1, polyhistidine-tagged Pol1B (recombinant, fluorescently labelled) (Arabidopsis thaliana, UniProt Q84ND9 56-1034, fluorescent dye RED-tris-NTA (Monolith His-Tag Labeling Kit) on the His tag).
T1 construct: DNA polymerase 1B, Arabidopsis thaliana, At3g20540; also called his-tagged Pol1B; DNA polymerase 1B; source: recombinant, purified
T1 sequence (looked up): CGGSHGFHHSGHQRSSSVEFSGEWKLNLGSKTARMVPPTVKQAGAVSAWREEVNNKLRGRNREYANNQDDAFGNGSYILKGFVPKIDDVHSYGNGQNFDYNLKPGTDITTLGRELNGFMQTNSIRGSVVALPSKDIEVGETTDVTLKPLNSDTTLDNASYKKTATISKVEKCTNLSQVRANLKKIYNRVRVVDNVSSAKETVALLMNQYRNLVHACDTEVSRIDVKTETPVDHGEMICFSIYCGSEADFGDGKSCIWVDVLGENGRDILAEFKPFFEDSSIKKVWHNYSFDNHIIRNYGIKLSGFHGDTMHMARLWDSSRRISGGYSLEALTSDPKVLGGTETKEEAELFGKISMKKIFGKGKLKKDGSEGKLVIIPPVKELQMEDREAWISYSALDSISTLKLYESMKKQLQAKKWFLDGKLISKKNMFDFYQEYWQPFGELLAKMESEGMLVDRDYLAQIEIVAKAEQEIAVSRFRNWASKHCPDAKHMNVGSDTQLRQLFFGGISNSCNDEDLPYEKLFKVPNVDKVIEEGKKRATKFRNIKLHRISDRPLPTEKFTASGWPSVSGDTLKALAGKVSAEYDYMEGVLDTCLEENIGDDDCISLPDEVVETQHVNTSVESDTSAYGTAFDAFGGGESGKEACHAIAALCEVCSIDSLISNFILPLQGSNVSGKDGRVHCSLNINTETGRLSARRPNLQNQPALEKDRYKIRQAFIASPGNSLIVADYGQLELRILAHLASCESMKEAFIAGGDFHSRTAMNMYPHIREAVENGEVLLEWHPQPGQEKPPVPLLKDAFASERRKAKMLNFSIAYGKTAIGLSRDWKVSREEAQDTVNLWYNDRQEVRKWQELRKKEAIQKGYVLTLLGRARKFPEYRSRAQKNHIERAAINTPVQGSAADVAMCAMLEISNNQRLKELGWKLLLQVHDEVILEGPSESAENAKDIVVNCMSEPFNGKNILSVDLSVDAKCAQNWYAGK
The assay can be described thus: MST; His-tagged Pol1B labelled with RED-tris-NTA, constant 20 nM (10 nM in the results text); ligands in 16 serial dilutions; PBS + 0.05% Tween; Monolith NT.115p, 10% LED power, 50% MST power, standard capillaries. The note with it: both partners purified.

In general, Kd refers to the concentration at which binding is half-saturated.

Chain of DnaE (Bacillus subtilis) (O34623 whole entry): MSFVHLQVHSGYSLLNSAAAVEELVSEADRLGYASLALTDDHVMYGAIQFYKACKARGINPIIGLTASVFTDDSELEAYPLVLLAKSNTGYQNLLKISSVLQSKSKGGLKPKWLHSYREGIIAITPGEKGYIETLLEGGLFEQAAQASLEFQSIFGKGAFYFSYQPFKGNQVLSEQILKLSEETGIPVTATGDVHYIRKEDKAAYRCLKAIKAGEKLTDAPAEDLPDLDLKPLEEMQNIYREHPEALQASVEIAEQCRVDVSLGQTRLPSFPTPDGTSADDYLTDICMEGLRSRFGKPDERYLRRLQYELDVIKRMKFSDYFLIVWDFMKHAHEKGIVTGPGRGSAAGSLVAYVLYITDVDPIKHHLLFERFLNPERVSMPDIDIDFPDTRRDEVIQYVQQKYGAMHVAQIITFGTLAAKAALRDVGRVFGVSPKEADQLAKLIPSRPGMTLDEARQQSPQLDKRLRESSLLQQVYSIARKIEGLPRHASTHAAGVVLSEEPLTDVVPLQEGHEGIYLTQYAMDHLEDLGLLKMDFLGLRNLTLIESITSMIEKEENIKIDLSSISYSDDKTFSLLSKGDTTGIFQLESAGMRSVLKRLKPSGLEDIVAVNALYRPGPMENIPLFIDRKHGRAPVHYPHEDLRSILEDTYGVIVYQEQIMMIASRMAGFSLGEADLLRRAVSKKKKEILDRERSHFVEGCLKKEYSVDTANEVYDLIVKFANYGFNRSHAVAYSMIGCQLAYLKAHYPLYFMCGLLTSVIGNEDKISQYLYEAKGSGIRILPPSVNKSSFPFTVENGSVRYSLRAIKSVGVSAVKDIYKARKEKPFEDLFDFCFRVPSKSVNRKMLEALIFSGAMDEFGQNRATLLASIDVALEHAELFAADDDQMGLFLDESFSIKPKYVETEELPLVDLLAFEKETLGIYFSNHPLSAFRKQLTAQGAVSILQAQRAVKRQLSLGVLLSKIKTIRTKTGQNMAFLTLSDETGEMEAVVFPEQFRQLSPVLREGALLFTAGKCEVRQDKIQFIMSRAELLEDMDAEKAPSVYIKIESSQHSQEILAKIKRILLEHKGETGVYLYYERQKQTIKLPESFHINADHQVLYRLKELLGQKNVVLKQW
Chain of T7 primase-helicase (Escherichia phage T7) (P03692 whole entry): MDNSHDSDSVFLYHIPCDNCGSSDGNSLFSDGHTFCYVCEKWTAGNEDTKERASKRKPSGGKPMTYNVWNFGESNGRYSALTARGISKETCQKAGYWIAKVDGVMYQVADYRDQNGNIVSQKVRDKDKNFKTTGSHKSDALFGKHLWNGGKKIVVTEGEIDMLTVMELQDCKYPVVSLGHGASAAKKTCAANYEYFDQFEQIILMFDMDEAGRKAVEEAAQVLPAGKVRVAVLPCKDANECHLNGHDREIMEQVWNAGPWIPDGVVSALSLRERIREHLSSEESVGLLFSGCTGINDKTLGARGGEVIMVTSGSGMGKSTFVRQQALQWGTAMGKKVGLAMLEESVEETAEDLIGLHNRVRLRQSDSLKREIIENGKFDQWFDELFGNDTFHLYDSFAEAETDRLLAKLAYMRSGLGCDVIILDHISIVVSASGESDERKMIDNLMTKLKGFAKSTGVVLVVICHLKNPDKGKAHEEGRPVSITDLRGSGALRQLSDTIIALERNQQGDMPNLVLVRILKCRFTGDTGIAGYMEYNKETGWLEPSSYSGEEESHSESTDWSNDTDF

T7 DNA polymerase (from UniProt P00581): the Kd in assay [1] is 440 nM. As for DnaG primase (from UniProt P05096), in the assay with DnaE (Bacillus subtilis), the Kd is 750 nM.

B1: Twinkle primase domain (residues 92-410) (domain or fragment, Arabidopsis thaliana, UniProt B5X582 92-410, looked up)
chain: TPVDTEVEADKRVVLSRLVTLRRKLAEQGVDAENCPPGQHSGLICPTCEGGNSGEKSLSLFIAPDGSSATWNCFRGKCGLKGGVRADGGLASADPIEKVERKITVEGIELEPLCDEIQDYFAARAISRKTLERNRVMQKRIGDEIVIAFTYWQRGELVSCKYRSLTKMFFQERKTRRILYGLDDIEKTSEVIIVEGEIDKLAMEEAGFLNCVSVPDGAPAKVSSKEIPSEDKDTKYKFLWNCNDYLKKASRIVIATDGDGPGQAMAEEIARRLGKERCWRVKWPKKSEDEHFKDANEVLMSKGPHLLKEAILDAEPYPI
notes: Twinkle, Arabidopsis thaliana, At1g30680, primase domain, residues 92-410; Tag removed with PreScission protease; also called primase module
Take B1: in assay [2], the Kd was determined as 810 nM.

B2: Twinkle zinc finger subdomain (residues 92-186) (domain or fragment, Arabidopsis thaliana, UniProt B5X582 92-186, looked up)
chain: TPVDTEVEADKRVVLSRLVTLRRKLAEQGVDAENCPPGQHSGLICPTCEGGNSGEKSLSLFIAPDGSSATWNCFRGKCGLKGGVRADGGLASADP
notes: Twinkle, Arabidopsis thaliana, At1g30680, zinc finger subdomain, residues 92-186; Tag removed with PreScission protease; also called Zn++ Finger domain; zf
For the molecule B2, the Kd in assay [2] stood at 2170 nM.

B3: full-length Twinkle (recombinant, without histidine tag) (enzyme, Arabidopsis thaliana, UniProt B5X582 82-709, looked up)
chain: SSYNSIPRVPTPVDTEVEADKRVVLSRLVTLRRKLAEQGVDAENCPPGQHSGLICPTCEGGNSGEKSLSLFIAPDGSSATWNCFRGKCGLKGGVRADGGLASADPIEKVERKITVEGIELEPLCDEIQDYFAARAISRKTLERNRVMQKRIGDEIVIAFTYWQRGELVSCKYRSLTKMFFQERKTRRILYGLDDIEKTSEVIIVEGEIDKLAMEEAGFLNCVSVPDGAPAKVSSKEIPSEDKDTKYKFLWNCNDYLKKASRIVIATDGDGPGQAMAEEIARRLGKERCWRVKWPKKSEDEHFKDANEVLMSKGPHLLKEAILDAEPYPILGLFSFKDFFDEIDAYYDRTHGHEYGVSTGWKNLDNLYSVVPGELTVVTGIPNSGKSEWIDAMLCNLNHSVGWKFALCSMENKVRDHARKLLEKHIKKPFFDADYGRSVQRMSVEEKDEGKKWLNDTFYPIRCEMDSLPSIDWVLERAKAAVLRYGIRGLVIDPYNELDHQRTPRQTETEYVSQMLTKIKRFSQHHSCHVWFVAHPKQLQHWDGGAPNLYDISGSAHFINKCDNGIIVHRNRDENAGPLDLVQIGVRKVRNKVAGQIGDAYLCYDRTTGSYSDSPVTPGMPERRSPKRY
notes: Twinkle, Arabidopsis thaliana, At1g30680; called full-length in the results and legend; the methods name 'Twinkle lacking the first 91 codons' as the template of the domain constructs; Used without a histidine tag; It may in fact be the form lacking the first 91 residues (92-709); also called the full-length protein
In the case of B3, in assay [2], the dissociation constant Kd was found to be 1260 nM.

B4: Twinkle helicase domain (401-709) (domain or fragment, Arabidopsis thaliana, UniProt B5X582 401-709, looked up)
chain: AILDAEPYPILGLFSFKDFFDEIDAYYDRTHGHEYGVSTGWKNLDNLYSVVPGELTVVTGIPNSGKSEWIDAMLCNLNHSVGWKFALCSMENKVRDHARKLLEKHIKKPFFDADYGRSVQRMSVEEKDEGKKWLNDTFYPIRCEMDSLPSIDWVLERAKAAVLRYGIRGLVIDPYNELDHQRTPRQTETEYVSQMLTKIKRFSQHHSCHVWFVAHPKQLQHWDGGAPNLYDISGSAHFINKCDNGIIVHRNRDENAGPLDLVQIGVRKVRNKVAGQIGDAYLCYDRTTGSYSDSPVTPGMPERRSPKRY
notes: Twinkle, Arabidopsis thaliana, At1g30680, helicase domain, residues 401-709; Tags of the pCri-1b vector removed with TEV protease; also called helicase module; source: cloned into pCri-1b, purified (potassium phosphate pH 7.0 buffer)
On to B4, for which the Kd in assay [2] came out at 1970 nM.
